Data reported in patent publication US20230265151A1, “GIP/GLP1 CO-AGONIST COMPOUNDS” (priority 2020, published 2023).
Where a chain is given by its changes, count along the chain named. *1 amine or outer side, *2 acyl side, *3 side chain or, on linkers, in order; H or OH if unused. Where no end group is shown, it is not given here. Side-chain parts run from the residue outwards. [ ]: non-standard residue; d: D form. The star is where a group is joined. Decanoyl(10-(4-HOOC-PhO)) = O=C(O)c1ccc(OCCCCCCCCCC(=O)*)cc1; αMePhe(2-F) = C[C@](N)(Cc1ccccc1F)C(=O)O; γGlu = O=C(O)[C@H](CCC(=O)[*:2])N[*:1]; C14 diacid = O=C(O)CCCCCCCCCCCCC(=O)*; αMeY = C[C@](N)(Cc1ccc(O)cc1)C(=O)O; 4Pal = N[C@@H](Cc1ccncc1)C(=O)O; αMeL = CC(C)C[C@](C)(N)C(=O)O; Lauroyl = CCCCCCCCCCCC(=O)*; Orn = NCCC[C@H](N)C(=O)O; AEEA = NCCOCCOCC(=O)O; Aib = CC(C)(N)C(=O)O

B1: Example 418 (peptide)
peptide: YXEGTXTSDXXIXLDXKAQXXFIXXLIEGGPSSGAPPPSK
modifications: Y-Aib-EGT-αMeF(2F)-TSD-4Pal-Aib-I-αMeL-LD-Orn-K((2-[2-(2-Amino-ethoxy)-ethoxy]-acetyl)2-(γ-Glu)-CO-(CH2)10-CH3)AQ-Aib-Orn-FI-(D-Glu)-αMeY-LIEGGPSSGAPPPSK((2-[2-(2-Amino-ethoxy)-ethoxy]-acetyl)2-(γ-Glu)-CO-(CH2)10-CH3)-NH2
B2: Example 407 (peptide)
peptide: Y[Aib]EGT[αMePhe(2-F)]TSDV[Aib]I[αMeL]LD[Orn]K([AEEA-AEEA-γGlu-C14 diacid])AQ[Aib]K([AEEA-AEEA-γGlu-C14 diacid])FI[dE][αMeY]LI[Orn]GGPSSGAPPPS-NH2
modifications: N-terminus assumed
SMILES: CC[C@H](C)[C@H](NC(=O)[C@H](CC(C)C)NC(=O)[C@](C)(Cc1ccc(O)cc1)NC(=O)[C@@H](CCC(=O)O)NC(=O)[C@@H](NC(=O)[C@H](Cc1ccccc1)NC(=O)[C@H](CCCCNC(=O)COCCOCCNC(=O)COCCOCCNC(=O)CC[C@H](NC(=O)CCCCCCCCCCCCC(=O)O)C(=O)O)NC(=O)C(C)(C)NC(=O)[C@H](CCC(N)=O)NC(=O)[C@H](C)NC(=O)[C@H](CCCCNC(=O)COCCOCCNC(=O)COCCOCCNC(=O)CC[C@H](NC(=O)CCCCCCCCCCCCC(=O)O)C(=O)O)NC(=O)[C@H](CCCN)NC(=O)[C@H](CC(=O)O)NC(=O)[C@H](CC(C)C)NC(=O)[C@](C)(CC(C)C)NC(=O)[C@@H](NC(=O)C(C)(C)NC(=O)[C@@H](NC(=O)[C@H](CC(=O)O)NC(=O)[C@H](CO)NC(=O)[C@@H](NC(=O)[C@](C)(Cc1ccccc1F)NC(=O)[C@@H](NC(=O)CNC(=O)[C@H](CCC(=O)O)NC(=O)C(C)(C)NC(=O)[C@@H](N)Cc1ccc(O)cc1)[C@@H](C)O)[C@@H](C)O)C(C)C)[C@@H](C)CC)[C@@H](C)CC)C(=O)N[C@@H](CCCN)C(=O)NCC(=O)NCC(=O)N1CCC[C@H]1C(=O)N[C@@H](CO)C(=O)N[C@@H](CO)C(=O)NCC(=O)N[C@@H](C)C(=O)N1CCC[C@H]1C(=O)N1CCC[C@H]1C(=O)N1CCC[C@H]1C(=O)N[C@@H](CO)C(N)=O
B3: Example 394 (peptide)
peptide: YXEGTXTSDVXIXLDXKAQXKFIXXLIEGGPSSGAPPPS
modifications: Y-Aib-EGT-αMeF(2F)-TSDV-Aib-I-αMeL-LD-Orn-K((2-[2-(2-Amino-ethoxy)-ethoxy]-acetyl)2-(10-(4-carboxyphenoxy)decanoyl))AQ-Aib-K((2-[2-(2-Amino-ethoxy)-ethoxy]-acetyl)2-(10-(4-carboxyphenoxy)decanoyl))FI-(D-Glu)-αMeY-LIEGGPSSGAPPPS-NH2
B4: Example 417 (peptide)
peptide: B3 peptide with V10K, K21X
modifications: Y-Aib-EGT-αMeF(2F)-TSDK((2-[2-(2-Amino-ethoxy)-ethoxy]-acetyl)2-(γ-Glu)-CO-(CH2)10-CH3)-Aib-I-αMeL-LD-Orn-K((2-[2-(2-Amino-ethoxy)-ethoxy]-acetyl)2-(γ-Glu)-CO-(CH2)10-CH3)AQ-Aib-Orn-FI-(D-Glu)-αMeY-LIEGGPSSGAPPPS-NH2
B5: Example 398 (peptide)
peptide: B3 peptide
modifications: Y-Aib-EGT-αMeF(2F)-TSDV-Aib-I-αMeL-LD-Orn-K((2-[2-(2-Amino-ethoxy)-ethoxy]-acetyl)-(γ-Glu)-CO-(CH2)12-CO2H)AQ-Aib-K((2-[2-(2-Amino-ethoxy)-ethoxy]-acetyl)-(γ-Glu)-CO-(CH2)12-CO2H)FI-(D-Glu)-αMeY-LIEGGPSSGAPPPS-NH2

What follows are binders tested against T1, human GIP receptor (human) (UniProt P48546) (assay: cell-based or functional assay).
T1 sequence (looked up): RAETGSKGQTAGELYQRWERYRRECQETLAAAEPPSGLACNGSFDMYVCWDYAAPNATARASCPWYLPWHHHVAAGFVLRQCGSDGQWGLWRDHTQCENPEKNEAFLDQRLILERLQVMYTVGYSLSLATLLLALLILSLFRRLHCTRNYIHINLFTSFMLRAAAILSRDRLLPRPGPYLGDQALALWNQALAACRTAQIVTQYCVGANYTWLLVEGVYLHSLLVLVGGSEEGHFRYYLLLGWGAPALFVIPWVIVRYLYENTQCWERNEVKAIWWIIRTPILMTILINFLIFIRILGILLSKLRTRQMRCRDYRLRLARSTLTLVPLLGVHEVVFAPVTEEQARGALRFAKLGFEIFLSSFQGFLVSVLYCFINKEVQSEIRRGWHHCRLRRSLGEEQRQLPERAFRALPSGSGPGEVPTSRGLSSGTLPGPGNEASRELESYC

Binder	cAMP EC50	cAMP Emax
Y[Aib]EGT[αMePhe(2-F)]TSDK([AEEA-AEEA-γGlu-Lauroyl])[Aib]I[αMeL]LD[Orn]K([AEEA-AEEA-γGlu-Lauroyl])AQ[Aib][4Pal]FI[dE][αMeY]LIEGGPSSGAPPPS-NH2 [Example 415]	0.00991 nM	101%
B1	0.00599 nM	91%
Y[Aib]EGT[αMePhe(2-F)]TSDV[Aib]I[αMeL]LD[Orn]K([AEEA-AEEA-γGlu-Decanoyl(10-(4-HOOC-PhO))])AQ[Aib]K([AEEA-AEEA-γGlu-Decanoyl(10-(4-HOOC-PhO))])FI[dE][αMeY]LI[Orn]GGPSSGAPPPS-NH2 [Example 410]	0.0118 nM	99.1%
B2	0.0114 nM	99.2%
B3	0.0179 nM	97.7%
B4	0.00651 nM	101%
B5	0.0166 nM	97.4%

The binders below were run against hGLP-1R (Homo sapiens, UniProt P43220) (assay: cell-based or functional assay).

Binder	cAMP EC50	cAMP Emax
Y[Aib]EGT[αMePhe(2-F)]TSDK([AEEA-AEEA-γGlu-Lauroyl])[Aib]I[αMeL]LD[Orn]K([AEEA-AEEA-γGlu-Lauroyl])AQ[Aib][4Pal]FI[dE][αMeY]LIEGGPSSGAPPPS-NH2 [Example 415]	0.122 nM	109%
B1	0.0603 nM	93.7%
Y[Aib]EGT[αMePhe(2-F)]TSDV[Aib]I[αMeL]LD[Orn]K([AEEA-AEEA-γGlu-Decanoyl(10-(4-HOOC-PhO))])AQ[Aib]K([AEEA-AEEA-γGlu-Decanoyl(10-(4-HOOC-PhO))])FI[dE][αMeY]LI[Orn]GGPSSGAPPPS-NH2 [Example 410]	0.251 nM	94%
B2	0.156 nM	100%
B3	0.223 nM	101%
B4	0.0675 nM	109%
B5	0.215 nM	101%

The binders below were run against human glucagon receptor (human) (UniProt P47871) (assay: cell-based or functional assay).

Binder	cAMP EC50
Y[Aib]EGT[αMePhe(2-F)]TSDK([AEEA-AEEA-γGlu-Lauroyl])[Aib]I[αMeL]LD[Orn]K([AEEA-AEEA-γGlu-Lauroyl])AQ[Aib][4Pal]FI[dE][αMeY]LIEGGPSSGAPPPS-NH2 [Example 415]	> 9950 nM
B1	> 9950 nM
Y[Aib]EGT[αMePhe(2-F)]TSDV[Aib]I[αMeL]LD[Orn]K([AEEA-AEEA-γGlu-Decanoyl(10-(4-HOOC-PhO))])AQ[Aib]K([AEEA-AEEA-γGlu-Decanoyl(10-(4-HOOC-PhO))])FI[dE][αMeY]LI[Orn]GGPSSGAPPPS-NH2 [Example 410]	> 9950 nM
B2	> 9950 nM
B3	> 9950 nM
B4	> 9950 nM
B5	> 9950 nM

Each binder was assayed against human GLP-1 receptor (human, UniProt P43220 24-463) (assay: cell-based or functional assay).

Binder	cAMP EC50 (1.0% HSA)	cAMP Emax (1.0% HSA)
Y[Aib]EGT[αMePhe(2-F)]TSDK([AEEA-AEEA-γGlu-Lauroyl])[Aib]I[αMeL]LD[Orn]K([AEEA-AEEA-γGlu-Lauroyl])AQ[Aib][4Pal]FI[dE][αMeY]LIEGGPSSGAPPPS-NH2 [Example 415]	5.72 nM	
B1	1.72 nM	98.8%
Y[Aib]EGT[αMePhe(2-F)]TSDV[Aib]I[αMeL]LD[Orn]K([AEEA-AEEA-γGlu-Decanoyl(10-(4-HOOC-PhO))])AQ[Aib]K([AEEA-AEEA-γGlu-Decanoyl(10-(4-HOOC-PhO))])FI[dE][αMeY]LI[Orn]GGPSSGAPPPS-NH2 [Example 410]	11 nM	93.1%
B2	12.4 nM	97.2%
B3	5.83 nM	
B4	2.66 nM	
B5	41.3 nM	

The binders below were run against human glucagon receptor (human, UniProt P47871 26-477) (assay: cell-based or functional assay).
Chain of human glucagon receptor (P47871 26-477): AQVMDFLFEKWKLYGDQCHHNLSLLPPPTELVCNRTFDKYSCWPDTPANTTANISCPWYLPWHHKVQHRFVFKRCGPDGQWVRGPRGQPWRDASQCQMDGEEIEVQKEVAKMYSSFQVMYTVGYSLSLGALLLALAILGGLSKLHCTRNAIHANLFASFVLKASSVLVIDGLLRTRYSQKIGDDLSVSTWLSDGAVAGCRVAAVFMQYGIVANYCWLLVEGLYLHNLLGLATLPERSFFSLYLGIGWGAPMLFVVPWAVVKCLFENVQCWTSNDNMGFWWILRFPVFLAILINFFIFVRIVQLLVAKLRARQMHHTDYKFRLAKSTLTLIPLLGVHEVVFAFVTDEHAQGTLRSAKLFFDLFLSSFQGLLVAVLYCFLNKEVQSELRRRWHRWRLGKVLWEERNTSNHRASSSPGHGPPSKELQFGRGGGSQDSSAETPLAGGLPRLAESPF

Binder	cAMP EC50 (1.0% HSA)
Y[Aib]EGT[αMePhe(2-F)]TSDK([AEEA-AEEA-γGlu-Lauroyl])[Aib]I[αMeL]LD[Orn]K([AEEA-AEEA-γGlu-Lauroyl])AQ[Aib][4Pal]FI[dE][αMeY]LIEGGPSSGAPPPS-NH2 [Example 415]	> 9950 nM
B1	> 9950 nM
Y[Aib]EGT[αMePhe(2-F)]TSDV[Aib]I[αMeL]LD[Orn]K([AEEA-AEEA-γGlu-Decanoyl(10-(4-HOOC-PhO))])AQ[Aib]K([AEEA-AEEA-γGlu-Decanoyl(10-(4-HOOC-PhO))])FI[dE][αMeY]LI[Orn]GGPSSGAPPPS-NH2 [Example 410]	> 9950 nM
B2	> 9950 nM
B3	> 9950 nM
B4	> 9950 nM
B5	> 9950 nM

The binders below were run against T2, human GIP receptor (human, UniProt P48546 22-466) (assay: cell-based or functional assay).
T2 sequence (looked up): T1 sequence (looked up)

Binder	cAMP EC50 (1.0% HSA)	cAMP Emax (1.0% HSA)
Y[Aib]EGT[αMePhe(2-F)]TSDK([AEEA-AEEA-γGlu-Lauroyl])[Aib]I[αMeL]LD[Orn]K([AEEA-AEEA-γGlu-Lauroyl])AQ[Aib][4Pal]FI[dE][αMeY]LIEGGPSSGAPPPS-NH2 [Example 415]	0.492 nM	
B1	0.126 nM	
Y[Aib]EGT[αMePhe(2-F)]TSDV[Aib]I[αMeL]LD[Orn]K([AEEA-AEEA-γGlu-Decanoyl(10-(4-HOOC-PhO))])AQ[Aib]K([AEEA-AEEA-γGlu-Decanoyl(10-(4-HOOC-PhO))])FI[dE][αMeY]LI[Orn]GGPSSGAPPPS-NH2 [Example 410]	1.28 nM	86.4%
B2	1.87 nM	95.4%
B3	1.38 nM	84.6%
B4	0.201 nM	
B5	5.4 nM	91.9%
